Here are results for 28 molecules from paper PMC8769072, “Proteome‐scale mapping of binding sites in the unstructured regions of the human proteome” (Molecular Systems Biology, 2022).

First the molecules themselves.
B1: NCOR1 1240-1255 peptide, pS1242 (peptide)
peptide: Ac-EI[pS]LKRSYESVEGNIK-NH2
SMILES: CC[C@H](C)[C@H](NC(=O)[C@H](CC(N)=O)NC(=O)CNC(=O)[C@H](CCC(=O)O)NC(=O)[C@@H](NC(=O)[C@H](CO)NC(=O)[C@H](CCC(=O)O)NC(=O)[C@H](Cc1ccc(O)cc1)NC(=O)[C@H](CO)NC(=O)[C@H](CCCNC(=N)N)NC(=O)[C@H](CCCCN)NC(=O)[C@H](CC(C)C)NC(=O)[C@H](COP(=O)(O)O)NC(=O)[C@@H](NC(=O)[C@H](CCC(=O)O)NC(C)=O)[C@@H](C)CC)C(C)C)C(=O)N[C@@H](CCCCN)C(N)=O
B2: NCOR1 1240-1255 peptide, pY1247 (peptide)
peptide: Ac-EISLKRS[pY]ESVEGNIK-NH2
SMILES: CC[C@H](C)[C@H](NC(=O)[C@H](CC(N)=O)NC(=O)CNC(=O)[C@H](CCC(=O)O)NC(=O)[C@@H](NC(=O)[C@H](CO)NC(=O)[C@H](CCC(=O)O)NC(=O)[C@H](Cc1ccc(OP(=O)(O)O)cc1)NC(=O)[C@H](CO)NC(=O)[C@H](CCCNC(=N)N)NC(=O)[C@H](CCCCN)NC(=O)[C@H](CC(C)C)NC(=O)[C@H](CO)NC(=O)[C@@H](NC(=O)[C@H](CCC(=O)O)NC(C)=O)[C@@H](C)CC)C(C)C)C(=O)N[C@@H](CCCCN)C(N)=O
B3: NCOR1 1240-1255 peptide, pS1246 (peptide)
peptide: Ac-EISLKR[pS]YESVEGNIK-NH2
SMILES: CC[C@H](C)[C@H](NC(=O)[C@H](CC(N)=O)NC(=O)CNC(=O)[C@H](CCC(=O)O)NC(=O)[C@@H](NC(=O)[C@H](CO)NC(=O)[C@H](CCC(=O)O)NC(=O)[C@H](Cc1ccc(O)cc1)NC(=O)[C@H](COP(=O)(O)O)NC(=O)[C@H](CCCNC(=N)N)NC(=O)[C@H](CCCCN)NC(=O)[C@H](CC(C)C)NC(=O)[C@H](CO)NC(=O)[C@@H](NC(=O)[C@H](CCC(=O)O)NC(C)=O)[C@@H](C)CC)C(C)C)C(=O)N[C@@H](CCCCN)C(N)=O

Where no end group is shown, it is not given here. [ ]: non-standard residue; d: D form. pY = N[C@@H](Cc1ccc(OP(=O)(O)O)cc1)C(=O)O; pS = N[C@@H](COP(=O)(O)O)C(=O)O

Chain of KEAP1 Kelch (kelch-like ECH-associated protein 1, Kelch domain) (human) (Q14145 whole entry, the tested form may be a part): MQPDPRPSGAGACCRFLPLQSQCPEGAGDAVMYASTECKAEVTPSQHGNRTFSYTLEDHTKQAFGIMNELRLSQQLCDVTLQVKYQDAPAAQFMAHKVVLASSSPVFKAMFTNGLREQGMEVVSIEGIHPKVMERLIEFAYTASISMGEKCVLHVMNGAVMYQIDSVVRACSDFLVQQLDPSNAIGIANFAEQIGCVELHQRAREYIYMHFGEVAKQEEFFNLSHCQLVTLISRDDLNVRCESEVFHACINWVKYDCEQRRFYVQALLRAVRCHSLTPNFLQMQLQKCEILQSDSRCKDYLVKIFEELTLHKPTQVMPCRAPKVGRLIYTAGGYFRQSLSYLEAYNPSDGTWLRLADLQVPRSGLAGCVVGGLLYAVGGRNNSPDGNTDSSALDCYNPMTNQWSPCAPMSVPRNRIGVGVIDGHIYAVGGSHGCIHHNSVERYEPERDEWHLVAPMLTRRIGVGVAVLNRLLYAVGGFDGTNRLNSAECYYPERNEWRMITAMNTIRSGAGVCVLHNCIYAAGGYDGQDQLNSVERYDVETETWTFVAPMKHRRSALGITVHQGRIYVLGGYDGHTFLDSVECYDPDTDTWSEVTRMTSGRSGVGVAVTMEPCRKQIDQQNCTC

The target of one test is KPNA4 ARM (importin subunit alpha-3, armadillo repeat domain) (human) (UniProt O00629). The test is described as follows: fluorescence polarisation; competition: unlabelled peptide in serial dilution against KPNA4 ARM (master mix at four times the KD) with the probe FITC-Myc(320-328), probe of the major pocket; 50 mM KPO4 pH 7.5; Ki calculated from IC50.
Chain of KPNA4 ARM (importin subunit alpha-3, armadillo repeat domain) (human) (O00629 whole entry, the tested form may be a part): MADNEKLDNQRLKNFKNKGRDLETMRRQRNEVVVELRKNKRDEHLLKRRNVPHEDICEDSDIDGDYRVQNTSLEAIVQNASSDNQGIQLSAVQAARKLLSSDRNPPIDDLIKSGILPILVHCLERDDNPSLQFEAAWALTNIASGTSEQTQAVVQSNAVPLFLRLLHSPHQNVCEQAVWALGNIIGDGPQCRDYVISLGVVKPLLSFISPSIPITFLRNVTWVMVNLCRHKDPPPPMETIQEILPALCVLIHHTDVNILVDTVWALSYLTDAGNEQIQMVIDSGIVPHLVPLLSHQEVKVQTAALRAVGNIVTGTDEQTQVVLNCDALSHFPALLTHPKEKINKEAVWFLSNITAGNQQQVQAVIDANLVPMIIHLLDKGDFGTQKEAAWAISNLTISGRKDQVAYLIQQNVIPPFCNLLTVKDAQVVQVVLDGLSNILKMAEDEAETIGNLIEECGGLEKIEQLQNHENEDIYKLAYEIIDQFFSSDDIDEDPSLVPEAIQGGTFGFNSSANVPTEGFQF
Turning to EDSIEPPHKRLCLSSE-NH2 [DMTF1 44-59 peptide], the IC50 is 0.13 µM and the Ki is 0.075 µM.

On to VEPETKRLKLAASEDH-NH2 [ZRANB3 571-586 peptide], for which the concentration for half-maximal inhibition (IC50) is 0.24 µM and the Ki is 0.14 µM.

Regarding Ac-YKCKRQRQDQTLELVGL-NH2 [NKX2-5 192-207 peptide, wild type], the IC50 was 2.2 µM and the inhibitory constant (Ki) is 6.8 µM.

Turning to ERENPSKRSRIERDID-NH2 [CTDSPL2 64-79 peptide], the IC50 is 1.9 µM and the inhibition constant (Ki) was 1.2 µM.

In the case of DHQFPAKRPRLSEPQG-NH2 [HJURP 675-690 peptide], the IC50 is 0.076 µM and the inhibitory constant (Ki) is 0.038 µM.

Take Ac-YKCRRQRQDQTLELVGL-NH2 [NKX2-5 192-207 peptide, K194R]: the IC50 is 98 µM and the inhibition constant Ki was 63 µM.

With DLKRRLDSITSSQSSA-NH2 [KDR 958-973 peptide], the IC50 is 22 µM and the inhibition constant (Ki) is 14 µM.

As to IPEKKQRLEEATTICL-NH2 [AFF2 864-879 peptide], the IC50 is 2.3 µM and the inhibition constant (Ki) was 1.5 µM.

The next test has as its target KEAP1 Kelch (kelch-like ECH-associated protein 1, Kelch domain) (human) (UniProt Q14145). The test is described as follows: fluorescence polarisation; competition: unlabelled peptide in serial dilution against the protein domain (master mix at four times the KD) with its FITC-labelled probe peptide; 50 mM KPO4 or NaPO4 pH 7.5; Ki calculated from IC50.
For the molecule Ac-GIIDPSTGERFPVTDY-NH2 [PLEC 4457-4471 peptide with an extra C-terminal Y, wild type], the IC50 is 1.5 µM and the Ki is 0.49 µM.

As for Ac-LIYVDKENGEPGTRVV-NH2 [PTTG1 4-19 peptide], the 50% inhibitory concentration (IC50) was 3 µM.

As for GFDAVTGEFTGMPEQW-NH2 [PAK1 88-103 peptide], the IC50 was 44 µM and the inhibitory constant (Ki) is 11 µM.

In the case of Ac-YDEETGEFLPIQPAQH-NH2 [NFE2L2 77-91 peptide with an extra N-terminal Y, wild type], the 50% inhibitory concentration (IC50) was 0.31 µM and the Ki is 0.071 µM.

For IDPSTGERFPVTDAVN-NH2 [PLEC 4459-4474 peptide], the IC50 was 6.1 µM and the inhibitory constant (Ki) is 1.5 µM.

For the molecule YDPVTGEWKSLAKLPE-NH2 [KLHL24 335-350 peptide], the half-inhibitory concentration (IC50) is 80 µM and the Ki is 19 µM.

Consider Ac-YDEKTGEFLPIQPAQH-NH2 [NFE2L2 77-91 peptide with an extra N-terminal Y, E79K], for which the IC50 is 1650 µM and the inhibitory constant (Ki) was 397 µM.

For Ac-YDEEKGEFLPIQPAQH-NH2 [NFE2L2 77-91 peptide with an extra N-terminal Y, T80K], the IC50 was 2540 µM and the Ki was 611 µM.

Another test addresses KPNA4 ARM (importin subunit alpha-3, armadillo repeat domain) (human) (UniProt O00629). The test is described as follows: fluorescence polarisation; competition: unlabelled peptide in serial dilution against KPNA4 ARM (master mix at four times the KD) with the probe FITC-NCOR2(1307-1322), probe of the minor pocket; 50 mM KPO4 pH 7.5; Ki calculated from IC50.
SLAPVKRTYEQMEFPL-NH2 [ADNP 711-726 peptide]: the half-maximal inhibitory concentration (IC50) was 1.3 µM and the Ki was 0.38 µM.

Regarding ELKRKLEQEQKLVEVL-NH2 [MKL2 572-587 peptide], the IC50 is 36 µM and the Ki is 13 µM.

On to GVKRTYSEVYPGQQYL-NH2 [ZMIZ2 264-279 peptide], for which the IC50 was 0.43 µM and the Ki was 0.054 µM.

On to GKKRTFDETVSTYVPL-NH2 [TPX2 312-327 peptide], for which the half-inhibitory concentration (IC50) is 0.41 µM and the Ki was 0.047 µM.

For Ac-EISLKRSYESVEGNIK-NH2 [NCOR1 1240-1255 peptide, unphosphorylated], the half-inhibitory concentration (IC50) is 11 µM and the Ki is 3.6 µM.

For DHQFPAKRPRLSEPQG-NH2 [HJURP 675-690 peptide], the IC50 was 170 µM and the inhibitory constant (Ki) was 63 µM.

As for AGVKRSAAEMYGSVTE-NH2 [HNRNPC 95-110 peptide], the IC50 is 0.5 µM and the inhibitory constant (Ki) is 0.093 µM.

B1: the IC50 is 31 µM and the inhibition constant Ki is 10 µM.

Turning to B2, the IC50 was 21 µM and the Ki is 6.8 µM.

Regarding PFKRPHSTISDSSTSS-NH2 [PLEKHG4B 1183-1198 peptide], the concentration for half-maximal inhibition (IC50) was 3.6 µM and the Ki was 1.2 µM.

As for B3, the IC50 was 240 µM and the Ki was 81 µM.

Turning to PKRTYDMMEGRVGRAI-NH2 [NCOR2 1307-1322 peptide, unlabelled], the IC50 was 0.12 µM.

With DLKRRLDSITSSQSSA-NH2 [KDR 958-973 peptide], the IC50 was 24 µM and the inhibition constant (Ki) is 8.9 µM.

Turning to STMKRKHDEIQRSLPV-NH2 [ZBED9 651-666 peptide], the IC50 was 2.4 µM and the Ki is 0.77 µM.

As to IPEKKQRLEEATTICL-NH2 [AFF2 864-879 peptide], the concentration for half-maximal inhibition (IC50) was 3800 µM and the Ki was 1420 µM.

The IC50 is the midpoint of a concentration-inhibition curve. Usually Ki stands for the equilibrium dissociation constant of an inhibitor or competing ligand from its target.
